Experimental data published in article PMC4871718 (Nature chemical biology, 2016).

T1: CIB1-CreC (UniProt Q8GY61)
T1 sequence (Q8GY61 whole entry, looked up): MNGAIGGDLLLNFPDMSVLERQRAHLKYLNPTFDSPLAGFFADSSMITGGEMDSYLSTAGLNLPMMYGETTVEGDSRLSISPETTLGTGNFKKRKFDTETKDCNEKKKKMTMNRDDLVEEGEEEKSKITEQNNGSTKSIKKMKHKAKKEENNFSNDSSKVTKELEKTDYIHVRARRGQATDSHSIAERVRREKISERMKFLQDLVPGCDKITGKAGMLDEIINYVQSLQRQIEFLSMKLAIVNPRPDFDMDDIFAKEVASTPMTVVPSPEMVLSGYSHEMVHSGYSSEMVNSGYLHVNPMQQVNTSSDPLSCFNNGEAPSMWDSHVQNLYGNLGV

B1: VP16-CIB1 (natural protein, UniProt Q8GY61 1-335, looked up)
chain: T1 sequence (Q8GY61 whole entry, looked up)

What was measured:
[1] = target: T1, CIB1-CreC
[2] = target: LexABD-CRY2(535) (Arabidopsis thaliana, UniProt Q96524 1-535); assay: two-hybrid

Molecule | Cre recombination with extended 24 hour illumination [1] [%] | fold reduction in dark activity against LexABD-CRY2PHR [2] [fold]
CRY2(L348F)-CreN (from UniProt Q96524 1-612; P06956 1-104) | > 50 | 
B1 |  | 26
